The values that follow come from patent US20240116985A1, “STAPLED PEPTIDES AND METHODS THEREOF” (priority 2020, published 2024).

Starred links: 1 amine or outer side, 2 acyl side, 3 side chain; linkers in the order of their positions; H or OH if unused. Positions of bridges follow the written chain, without caps; N, C: chain ends. Non-standard residues stand in square brackets, D forms with d. Primed or numbered codes have the meaning given here. PyrS2″ = (S)-3-amino-1-((pent-4-en-1-yloxy)carbonyl)pyrrolidine-3-carboxylic acid (stapling residue), C=CCCCOC(=O)N1CC[C@@](N[*:1])(C(=O)[*:2])C1; B5(4) = 2,2-bis(4-pentenyl)glycine = 2-amino-2-(pent-4-en-1-yl)hept-6-enoic acid (stitching residue), C=CCCCC(CCCC=C)(N[*:1])C(=O)[*:2]; TfeGA = (S)-2-amino-3-((carboxymethyl)(2,2,2-trifluoroethyl)amino)propanoic acid, O=C([C@H](CN(CC(=O)[*:3])CC(F)(F)F)N[*:1])[*:2]; PyrS2 = (S)-3-amino-1-((pent-4-en-1-yloxy)carbonyl)pyrrolidine-3-carboxylic acid, C=CCCCOC(=O)N1CC[C@@](N[*:1])(C(=O)[*:2])C1; B5(19) = 2-amino-2-(pent-4-en-1-yl)hept-6-enoic acid (bis(4-pentenyl)glycine), C=CCCCC(CCCC=C)(N[*:1])C(=O)[*:2]; MePpzAsn = (S)-2-amino-4-(4-methylpiperazin-1-yl)-4-oxobutanoic acid, CN1CCN(C(=O)C[C@H](N[*:1])C(=O)[*:2])CC1; F2PipNva = (S)-2-amino-5-(4,4-difluoropiperidin-1-yl)pentanoic acid, O=C([C@H](CCCN1CCC(F)(F)CC1)N[*:1])[*:2]; MorphAsn = (S)-2-amino-4-morpholino-4-oxobutanoic acid, O=C(C[C@H](N[*:1])C(=O)[*:2])N1CCOCC1; B5(3) = 2,2-bis(4-pentenyl)glycine (stitching residue), C=CCCCC(CCCC=C)(N[*:1])C(=O)[*:2]; Phe(F5) = N[C@@H](Cc1c(F)c(F)c(F)c(F)c1F)C(=O)O; Nva(5-morpholino) = N[C@@H](CCCN1CCOCC1)C(=O)O; Phe(3-COOH) = N[C@@H](Cc1cccc(C(=O)O)c1)C(=O)O; 2F3MeF = Cc1cccc(C[C@H](N[*:1])C(=O)[*:2])c1F; Phe(2-Cl) = N[C@@H](Cc1ccccc1Cl)C(=O)O; Bta = N[C@@H](Cc1csc2ccccc12)C(=O)O; Lys(iPr) = CC(C)NCCCC[C@H](N)C(=O)O; hTyr = N[C@@H](CCc1ccc(O)cc1)C(=O)O; αAllylPro = C=CC[C@@]1(C(=O)O)CCCN1; tBuAla = CC(C)(C)C[C@H](N)C(=O)O; 3Thi = N[C@@H](Cc1ccsc1)C(=O)O; R5 = C=CCCC[C@@](C)(N)C(=O)O; hLeu = CC(C)CC[C@H](N)C(=O)O; S5 = C=CCCC[C@](C)(N)C(=O)O; hSer = N[C@@H](CCO)C(=O)O; Nle = CCCC[C@H](N)C(=O)O; Aib = CC(C)(N)C(=O)O

The chains are these.
B1: I-1778 (peptide)
peptide: Ac-[αAllylPro]D[tBuAla][S5]DDAAF[R5]A[3Thi][Bta][S5]A-NH2
modifications: staple (positions not given here); not fully specified; printed as Ac-PL3-Asp-Npg-S5-Asp-Asp-Ala-Ala-Phe-R5-Ala-3Thi-BztA-S5-Ala-NH2; also: staple pairing among PL3 1, S5 4, R5 10, S5 14 not given here
B2: I-1793 (peptide)
peptide: Ac-[αAllylPro]D[tBuAla][B5(19)]DHAAF[hSer][PyrS2][3Thi][Bta]Q-NH2
modifications: staple 1-4, 4-11; not fully specified; printed as Ac-PL3-Asp-Npg-B5-Asp-His-Ala-Ala-Phe-Hse-PyrS2-3Thi-BztA-Gln-NH2
B3: I-1781 (peptide)
peptide: Ac-[αAllylPro]D[tBuAla][S5]DD[Aib]AF[R5]A[3Thi][Bta][S5]A-NH2
modifications: staple (positions not given here); not fully specified; printed as Ac-PL3-Asp-Npg-S5-Asp-Asp-Aib-Ala-Phe-R5-Ala-3Thi-BztA-S5-Ala-NH2; also: staple pairing among PL3 1, S5 4, R5 10, S5 14 not given here
B4: I-1780 (peptide)
peptide: Ac-[αAllylPro]D[tBuAla][S5]DD[Aib]AF[R5]A[3Thi][Bta][S5]A-NH2
modifications: staple (positions not given here); not fully specified; printed as Ac-PL3-Asp-Npg-S5-Asp-Asp-Aib-Ala-Phe-R5-Ala-3Thi-BztA-S5-Ala-NH2; also: staple pairing among PL3 1, S5 4, R5 10, S5 14 not given here

In the experiment the target is full-length beta-Catenin (Uniprot ID P35222) (Homo sapiens (Human)) (UniProt P35222). The experiment can be described thus: fluorescence polarization competition against 5FAM-TCF4 10-53 on full-length beta-catenin. For orientation: Fluorescence polarisation rises when a labelled molecule tumbles more slowly, as on binding a larger partner.
Broadly, the IC50 is the point on the concentration scale where inhibition reaches its midpoint. A low value points to higher potency. Regarding Ac-[αAllylPro]D[tBuAla][B5(3)]D[TfeGA]AAFT[PyrS2][Phe(2-Cl)][Bta][Nva(5-morpholino)]-NH2 (staple 1-4, 4-11) [I-1609], the IC50 is 15 nM.
Under Ac-[αAllylPro]D[tBuAla][B5(19)]D[hTyr]AAF[hSer][PyrS2][3Thi][Bta]Q-NH2 (staple 1-4, 4-11) [I-1786] stands 42 nM; under Ac-[αAllylPro]D[tBuAla][B5(19)]D[Phe(F5)]AAF[hSer][PyrS2][3Thi][Bta]Q-NH2 (staple 1-4, 4-11) [I-1791], 182 nM; under Ac-[αAllylPro]D[tBuAla][B5(3)]D[TfeGA]AAFT[PyrS2″][Phe(2-Cl)][Bta][Lys(iPr)]-NH2 (staple 1-4, 4-11) [I-1615], 9 nM.
The same measure for Ac-[αAllylPro]D[tBuAla][B5(3)]D[Phe(3-COOH)]AAFL[PyrS2″][2F3MeF][Bta][MePpzAsn]-NH2 (staple 1-4, 4-11) [I-1612]: 10 nM; for Ac-[αAllylPro]D[tBuAla][B5(19)]D[Phe(F5)]AAFL[PyrS2][3Thi][Bta]Q-NH2 (staple 1-4, 4-11) [I-1792]: 935 nM; for Ac-[αAllylPro]D[tBuAla][B5(4)]D[Phe(3-COOH)]AAFL[PyrS2][2F3MeF][Bta][F2PipNva]-NH2 (staple 1-4, 4-11) [I-1608]: 76 nM.
Under Ac-[αAllylPro]D[tBuAla][B5(19)]DWAAF[hSer][PyrS2][3Thi][Bta]Q-NH2 (staple 1-4, 4-11) [I-1789] stands 183 nM; under B1, 2080 nM; under B2, 20 nM.
In the case of Ac-[αAllylPro]D[tBuAla][B5(4)]NTAAFT[PyrS2″][3Thi][Bta]Q-NH2 (staple 1-4, 4-11) [I-1621], the IC50 is 266 nM.
Under Ac-[αAllylPro]D[tBuAla][B5(4)]NTAAFL[PyrS2″][3Thi][Bta]Q-NH2 (staple 1-4, 4-11) [I-1618] stands 10000 nM.
Regarding Ac-[αAllylPro]D[tBuAla][B5(3)]D[Phe(3-COOH)]AAFL[PyrS2][2F3MeF][Bta][Nva(5-morpholino)]-NH2 (staple 1-4, 4-11) [I-1610], the IC50 came out at 19 nM.
In turn, Ac-[αAllylPro]D[tBuAla][B5(4)]NTAAF[Nle][PyrS2″][3Thi][Bta]Q-NH2 (staple 1-4, 4-11) [I-1619] had an IC50 of 1290 nM.
For Ac-[αAllylPro]D[tBuAla][B5(4)]NTAAF[hLeu][PyrS2″][3Thi][Bta]Q-NH2 (staple 1-4, 4-11) [I-1620], the IC50 is 2060 nM.
The same measure for Ac-[αAllylPro]D[tBuAla][B5(19)]DWAAFN[PyrS2][3Thi][Bta]Q-NH2 (staple 1-4, 4-11) [I-1788]: 58 nM; for B3: 8450 nM; for Ac-[αAllylPro]D[tBuAla][B5(4)]D[TfeGA]AAFT[PyrS2][Phe(2-Cl)][Bta][F2PipNva]-NH2 (staple 1-4, 4-11) [I-1607]: 49 nM.
The same measure for Ac-[αAllylPro]D[tBuAla][B5(19)]DYAAFL[PyrS2][3Thi][Bta]Q-NH2 (staple 1-4, 4-11) [I-1784]: 528 nM; for Ac-[αAllylPro]D[tBuAla][B5(3)]D[Phe(3-COOH)]AAFL[PyrS2″][2F3MeF][Bta][MorphAsn]-NH2 (staple 1-4, 4-11) [I-1614]: 15 nM.
The same measure for Ac-[αAllylPro]D[tBuAla][B5(19)]DYAAF[hSer][PyrS2][3Thi][Bta]Q-NH2 (staple 1-4, 4-11) [I-1783]: 101 nM; for Ac-[αAllylPro]D[tBuAla][B5(3)]D[TfeGA]AAFT[PyrS2″][Phe(2-Cl)][Bta][MePpzAsn]-NH2 (staple 1-4, 4-11) [I-1611]: 10 nM; for Ac-[αAllylPro]D[tBuAla][B5(3)]D[TfeGA]AAFT[PyrS2″][Phe(2-Cl)][Bta][MorphAsn]-NH2 (staple 1-4, 4-11) [I-1613]: 9 nM.
B4 gave an IC50 of 4190 nM.
